The test concerns the target His-tagged Sinorhizobium meliloti DnaN (β-sliding clamp) (Sinorhizobium meliloti). Put plainly: BLI.

Regarding “MBP-Flag-IEP fusion protein (MF-IEP) of the RmInt1 intron, made in E. coli (natural protein)”, the kon was 82000 M⁻¹ s⁻¹. “MF-IEP104 (MF-IEP carrying substitution L104A) (natural protein)”: the on-rate constant (kon) was 44000 M⁻¹ s⁻¹.

Source of the values: PMC6698660.
